# Earlier results, collected in paper PMC4699190.
# Biological target: Carbonic anhydrase II (Homo sapiens) (UniProt P00918)
# Test: solid-phase binding assay
row,Kd,Substance
1,597 nM,AE1 C-terminus (from UniProt P02730)
2,322 nM,NBCe1 C-terminus (from UniProt Q9Y6R1)
3,330 nM,NDCBE C-terminus (from UniProt Q2Y0W8)
